Laboratory results published in article PMC5640589.

Tested on: T1, His6-SACE_3446B (Saccharopolyspora erythraea A226), ORF:3b7da887
T1 sequence: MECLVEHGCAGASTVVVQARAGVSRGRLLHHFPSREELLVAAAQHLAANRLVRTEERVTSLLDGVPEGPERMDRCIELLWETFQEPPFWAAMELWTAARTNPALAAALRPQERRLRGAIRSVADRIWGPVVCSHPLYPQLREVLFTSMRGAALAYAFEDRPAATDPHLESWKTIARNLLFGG
Assay: EMSA
Details: 10 mM Tris pH 7.5, 5 mM MgCl2, 50 mM EDTA ([…]

With “GCGTCCCCCTACTCGACGACCACGCAATGGGCGAACAATATAGGAAGGATCAAGAGGTTGACATCGCCTCGTCGAGCCAACGAACCTGTGAACATCTGCATGTTGACAAGATCAACGGCGGCTACCTACTGTGGTGGCCCAGTGACGGGTTGCCGCACATCGCGCTGGGGAGATTCTTTGAATTTCGCCCGTAGCACCGACCTGGAAAGCGAGCAAATGCTCCG (double strand) [eryAI promoter]” the binding was “no binding”.
In the case of “GCGAGTGTCCGTTCGAGTGGCGGCTTGCGCCCGATGCTAGTCGCGGTTGATCGGCGATCGCAGGTGCACGCGGTCGATCTTGACGGCTGGCGAGAGGTGCGGGGAGGATCTGACCGACGCGGTCCACACGTGGCACCGCGATGCTGTTGTGGGCTGGACAATCGTGCCGGTTGGTAGGATCCAGCG (double strand) [ermE promoter]”, the binding was “no binding”.
